One substance from patent publication US20130316376 can be followed below.

In the data set the test system is His6ZQGRep4CT.

Protease 3C: the “Protease 3C cleavage of a Z-Rep4CT fiber (SDS-PAGE of the cleavage supernatant)” value was “the Protease 3C cleavage site is available for cleavage in Z-Rep4CT fibers and therefore, the HZ part can be removed”.
